From the supplement of paper PMC10567573

B1: LOXL2 (parent)
chain: RLLRFSSQIHNNGQSDFRPKNGRH
B2: AUP1 (parent)
chain: EGLLRFSSWPFSIQDVVQPLTLQV

Variants of: B1
Experiment: protein stability index of a GFP-peptide fusion (GPS, HEK-293T) (PSI 1-6); higher = more stable
Settings: c terminus: a fixed tail appended
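Further: lentivirally expressed fusions sorted by FACS into six bins by GFP to DsRed ratio, PSI derived from sequencing read proportions per bin multiplied by bin number.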

| Variant | protein stability index |
| --- | --- |
| KLLRFSSQIHNNGQSDFRPKNGRH | 3.15 |
| RLLRFSSQRHNNGQSDFRPKNGRH | 3.24 |
| RLLRFSSQYHNNGQSDFRPKNGRH | 2.4 |
| RLLRFSSQKHNNGQSDFRPKNGRH | 2.31 |
| RLLRFSSQWHNNGQSDFRPKNGRH | 2.74 |
| RLLRFSSQTHNNGQSDFRPKNGRH | 3.14 |
| RLLRFSSQMHNNGQSDFRPKNGRH | 3.07 |
| RLLRFSSQCHNNGQSDFRPKNGRH | 3.11 |
| RLLRFSSQSHNNGQSDFRPKNGRH | 3.04 |
| RLLRFSSQQHNNGQSDFRPKNGRH | 3.14 |
| RLLRFSSQGHNNGQSDFRPKNGRH | 3.48 |
| RLLRFSSQNHNNGQSDFRPKNGRH | 3.19 |
| RLLRFSSQFHNNGQSDFRPKNGRH | 2.32 |
| RLLRFSSQVHNNGQSDFRPKNGRH | 2.99 |
| RLLRFSSQHHNNGQSDFRPKNGRH | 3.26 |
| RLLRFSSQAHNNGQSDFRPKNGRH | 2.81 |
| RLLRFSSQLHNNGQSDFRPKNGRH | 2.12 |
| RLLRFSSQPHNNGQSDFRPKNGRH | 3.44 |
| RLLRFSSQEHNNGQSDFRPKNGRH | 3.93 |
| RLLRFSSQDHNNGQSDFRPKNGRH | 3.5 |
| RLLRFSSQIFNNGQSDFRPKNGRH | 2.13 |
| RLLRFSSQILNNGQSDFRPKNGRH | 2.14 |

| Variant | protein stability index |
| --- | --- |
| RLLRFSSQIGNNGQSDFRPKNGRH | 2.57 |
| RLLRFSSQIDNNGQSDFRPKNGRH | 3.68 |
| RLLRFSSQIMNNGQSDFRPKNGRH | 2.47 |
| RLLRFSSQIENNGQSDFRPKNGRH | 3.43 |
| RLLRFSSQIKNNGQSDFRPKNGRH | 2.8 |
| RLLRFSSQICNNGQSDFRPKNGRH | 2.46 |
| RLLRFSSQIINNGQSDFRPKNGRH | 2.24 |
| RLLRFSSQIANNGQSDFRPKNGRH | 3.28 |
| RLLRRSSQIHNNGQSDFRPKNGRH | 3.69 |
| RLLRWSSQIHNNGQSDFRPKNGRH | 2.15 |
| RLLRNSSQIHNNGQSDFRPKNGRH | 3.92 |
| RLLRPSSQIHNNGQSDFRPKNGRH | 3.71 |
| RLLRTSSQIHNNGQSDFRPKNGRH | 3.99 |
| RLLRISSQIHNNGQSDFRPKNGRH | 2.72 |
| RLLRCSSQIHNNGQSDFRPKNGRH | 3.06 |
| RLLRGSSQIHNNGQSDFRPKNGRH | 4.21 |
| RLLRLSSQIHNNGQSDFRPKNGRH | 2.54 |
| RLLRASSQIHNNGQSDFRPKNGRH | 3.46 |
| RLLRQSSQIHNNGQSDFRPKNGRH | 3.6 |
| RLLRESSQIHNNGQSDFRPKNGRH | 3.94 |
| RLLRYSSQIHNNGQSDFRPKNGRH | 2.96 |
| RLLRDSSQIHNNGQSDFRPKNGRH | 3.84 |

| Variant | protein stability index |
| --- | --- |
| RLLRKSSQIHNNGQSDFRPKNGRH | 3.29 |
| RLLRSSSQIHNNGQSDFRPKNGRH | 3.81 |
| RLLRVSSQIHNNGQSDFRPKNGRH | 3.74 |
| RLLRHSSQIHNNGQSDFRPKNGRH | 3.95 |
| RLLRMSSQIHNNGQSDFRPKNGRH | 2.77 |
| RLLRFSSLIHNNGQSDFRPKNGRH | 2.29 |
| RLLRFSSEIHNNGQSDFRPKNGRH | 3.17 |
| RLLRFSSTIHNNGQSDFRPKNGRH | 2.67 |
| RLLRFSSMIHNNGQSDFRPKNGRH | 1.95 |
| RLLRFSSPIHNNGQSDFRPKNGRH | 3.54 |
| RLLRFSSHIHNNGQSDFRPKNGRH | 2.5 |
| RLLRFSSFIHNNGQSDFRPKNGRH | 2.07 |
| RLLRFSSYIHNNGQSDFRPKNGRH | 2.05 |
| RLLRFSSWIHNNGQSDFRPKNGRH | 1.77 |
| RLLRFSSRIHNNGQSDFRPKNGRH | 2.91 |
| RLLRFSSAIHNNGQSDFRPKNGRH | 2.94 |
| RLLRFSSGIHNNGQSDFRPKNGRH | 2.87 |
| RLLRFSSNIHNNGQSDFRPKNGRH | 2.95 |
| RLLRFSSSIHNNGQSDFRPKNGRH | 2.73 |
| RLLRFSSIIHNNGQSDFRPKNGRH | 2.23 |
| RLLRFSSDIHNNGQSDFRPKNGRH | 3.81 |
| RLLRFSSCIHNNGQSDFRPKNGRH | 2.21 |

| Variant | protein stability index |
| --- | --- |
| RLLRFSSVIHNNGQSDFRPKNGRH | 2.95 |
| RLLRFSSKIHNNGQSDFRPKNGRH | 2.14 |
| RLLRFSCQIHNNGQSDFRPKNGRH | 2.41 |
| RLLRFSVQIHNNGQSDFRPKNGRH | 2.04 |
| RLLRFSFQIHNNGQSDFRPKNGRH | 1.79 |
| RLLRFSQQIHNNGQSDFRPKNGRH | 2.18 |
| RLLRFSRQIHNNGQSDFRPKNGRH | 2.25 |
| RLLRFSAQIHNNGQSDFRPKNGRH | 2.5 |
| RLLRFSMQIHNNGQSDFRPKNGRH | 1.79 |
| RLLRFSIQIHNNGQSDFRPKNGRH | 1.89 |
| RLLRFSPQIHNNGQSDFRPKNGRH | 4.2 |
| RLLRFSWQIHNNGQSDFRPKNGRH | 2.06 |
| RLLRFSLQIHNNGQSDFRPKNGRH | 1.78 |
| RLLRFSHQIHNNGQSDFRPKNGRH | 2.44 |
| RLLRFSNQIHNNGQSDFRPKNGRH | 2.79 |
| RLLRFSTQIHNNGQSDFRPKNGRH | 2.21 |
| RLLRFSYQIHNNGQSDFRPKNGRH | 2.25 |
| RLLRFSGQIHNNGQSDFRPKNGRH | 2.46 |
| RLLRFSEQIHNNGQSDFRPKNGRH | 2.79 |
| RLLRFSDQIHNNGQSDFRPKNGRH | 3.57 |
| RLLRFSKQIHNNGQSDFRPKNGRH | 2.21 |

Variants of: B2
Experiment: as above
Settings: c terminus: a fixed tail appended

| Variant | protein stability index |
| --- | --- |
| EHLLRFSSWPFSIQDVVQPLTLQV | 3.65 |
| EGLLEFSSWPFSIQDVVQPLTLQV | 4.2 |
| EGLLRFSSWPFSIQDVVQPLVLQV | 2.81 |
| EGLLRFSSWPFSIQDVVEPLTLQV | 2.6 |
| EGLLRFSSSPFSIQDVVQPLTLQV | 1.73 |
| EGLLRFSSWPGSIQDVVQPLTLQV | 1.05 |
| EGLLRFSSWPFSIQDVVQPLTLYV | 2.82 |
